Results reported in the DeepSol protein solubility set.

Experiment: soluble on expression in E. coli; label from the status in PepcDB or PDB records

| Sequence | soluble on expression in E. coli |
| --- | --- |
| MSLAAVFPLADFRRAGFDRAGESDAWKDSIIKGDCVAALDALPSQSVDAIFADPPYNLQLGGTLHRPDQSLVDAVDDEWDQFASFDAYDAFTRAWLLACRRVLKPNGTIWVIGSYHNIFRVGAMLQNLDFWILNDIVWRKTNPMPNFKGRRFQNAHETMIWASRDPKAKSYTFNYDALKASNDDVQMRSDWLFPICSGHERLKGDDGKKVHPTQKPEALLARIIMASTKPGDIVLDPFFGSGTTGAVAKRLGRHFVGIEREQDYIDAASARITAVEPLGKAELTVMTGKKAEPRVAFNTLVESGLVRPGQVLTDARRRYSAIIRADGTLASGGTAGSIHRLGAKVQGLDACNGWTFWHFEDGDALKPIDDLRTIIRSEMAKAEGHHHHHH | soluble |
| MSLADRLTIGEFSRITHLSIRMLRRYHEQDLLVPAEVDPDTGYRYYSPAQIRPALTVRRFRDLDLPLADLRRFLAAESADGPDDGTAQQVVAAHLRRLEDRLGRTQRAVEVLRELLDPEAEREGHHHHHH | not soluble |
| MSLAEFIYTMKKVRKAHGDKVILDDVTLSFYPGAKIGVVGPNGAGKSSVLRIMAGLDKPNNGDAFLATGATVGILQQEPPLNEDKTVRGNVEEGMGDIKIKLDRFNEVAELMATDYTDELMEEMGRLQEELDHADAWDLDAQLEQAMDALRCPPADEPVTNLSGGERRRVALCKLLLSKPDLLLLDEPTNHLDAESVQWLEQHLASYPGAILAVTHDRYFLDNVAEWILELDRGRAYPYEGNYSTYLEKKAERLAVQGRKDAKLQKRLTEELAWVRSGAKARQAKSKARLQRYEEMAAEAEKTRKLDFEEIQIPVGPRLGNVVVEVDHLDKGYDGRALIKDLSFSLPRNGIVGVIGPNGVGKTTLFKTIVGLETPDSGSVKVGETVKLSYVDQARAGIDPRKTVWEVVSDGLDYIQVGQTEVPSRAYVSAFGFKGPDQQKPAGVLSGGERNRLNLALTLKQGGNLILLDEPTNDLDVETLGSLENALLNFPGCAVVISHDRWFLDRTCTHILAWEGDDDNEGHHHHHH | not soluble |
| MSLAEGYQSEADLERELIDDLRRQGYEFLPAIKTPEAMLANVRVQLQALNDVQFSDGEWARFVETWLDKPSDGIVEKTRKIHDDYIHDFVFDDGRIQNIHLVDKKTLVRNKVQVIRQFVTTPALCATPPREGNFSGGEQLWDQFPSFGGVPVGRGGYNRYDVTILVNGLPLVQVELKRRGVAIREAFNQVHRYSKESFNSAHSLFKYLQLFVISNGTDTRYFANTTRRDKNSFDFTMHWAKADNTPIRDLKDFAATFFQKHTLLSVLLHYSVFDVSNTLLVMRPYQIAATERILWKIKSSHQAKTWSTPEGGGYIWHTTGSGKTLTSFKAARLGTELDFIDKVFFVVDRKDLDYQTMKEYQRFSPDSVNGSDSTAGLKRNLEKDDNRIIVTTIQKLNNLMKSEPDLPIYHKQVVFIFDECHRSQFGEAQKNLRKKFKRYLQFGFTGTPIFPENALGAETTASVFGRELHSYVITDAIRDEKVLKFKVDYNDVRPRFKAIETERDEKKLSAAENRQALLHPERIREITQYILTHYRQKTHRLQPGAKGFNALFAVSSVEAAKLYYEAFKTQQKDSAKPLKVATIFSYAANEAQDAVGDIADEGFEVSALNSSAKEFLNAAIADYNALFKTNFSVDSQGFQNYYRDLAKRVKGTDDSGKRLPADEQVDLLIVVGMFLTGFDAPTLNTLFVDKNLRYHGLLQAYSRTNRIFDATKTFGNIVTFRDLEQATIDAITLFGDKNTRNVVLEKSYREYMEGYTDALTGQARRGFVEVVQELQARFPDPAALEKEADKKAFVRLFGEYLRAENVLQNFDEFAALKALQSVNTGDPAAVEAFKAQHYLSDEDLAALQAIKLPPERTMQDYRSTYNDIRDWLRREQAGVEKEKSTIDWDDVVFEVDLLKSQEINLDYILELIFERNKETRSKAELVEEVRRVIRASLGHRAKESLVVDFINQTDLEQLAEGHHHHHH | soluble |
| MSLAESPLEIHVIADSTGETAVRLARAARSQFEGVHWHIVRHPMIGTVPEMVSALEAVSEAHEAGQWVCVVHTLVLPDMRRMVSDACEEMGIRELDLMGPMLEAMEEASGLDADAVPRRPVGVEADYFTRISAMEFAVRNDDGAIPDRLTEADICLVGVSRSGKTPLSIYLGYLGYKTVNVPLVPGIAPPTELAAVDRWRIVGLTIDAQRLLEIRGRRVRGLGGFGNEDGYADLAAIYEELDEVGKIQRRLGCPIIDTTGLALEESATKVIDVVDQRAKTAGTRLRKPAGSYRMRPEGHHHHHH | soluble |
| MSLAETWDMPLAYSGSNFHSVTAAEFGNCVTTGTGGEIEIVTHPSGSLFKGADIKRAVQTGQAPIGERLLSGHQNENALFGFDSVPFLATSFDDADKLWKAAKEPLSALLAEQNLTLLYSVPWPPQGLYFKNEVNAVADMKGIKFRSYNNATSRLAELTGMLPVTIEAAEISQAFATGVADSMISSGSTGYDRKVWESLNYFYEVDAWLPRNYVFVNSDVWSGVSDQNKNVIQACAGLAEYAGNWRSKEYTGFTLQGLRDGGMTVGPASDQLVGELKEIGVTMTSEWLEAAGDQGKAIVDAFKAEGHHHHHH | not soluble |
| MSLAEYKHILVGVDGSRQAKRALDKAIAVALRNQAELIIVTIMSGGDYVGLGNNTQVGFGYVDQQVMDESRQALEALVDQYRQKAQEAGVERVVTSVFYGHAKVDLAKSLPKEYQADLIMLGATGVNVVERMLLGSTASYVVANAVCDVLVVRTDLHNEGHHHHHH | soluble |
| MSLAIKLIAIDMDGTLLLPDHTISPAVKNAIAAARARGVNVVLTTGRPYAGVHNYLKELHMEQPGDYCITYNGALVQKAADGSTVAQTALSYDDYRFLEKLSREVGSHFHALDRTTLYTANRDISYYTVHESFVATIPLVFCEAEKMDPNTQFLKVMMIDEPAILDQAIARIPQEVKEKYTVLKSAPYFLEILDKRVNKGTGVKSLADVLGIKPEEIMAIGDQENDIAMIEYAGVGVAVDNAIPSVKEVANFVTKSNLEDGVAFAIEKYVLNEGGSHHHHHH | soluble |
| MSLAKDKDTLDFIRNLCQKRHVCIQSSLAKVSSKKVNEKDVDKFLLYQHFSCNIRNIHHHQILAINRGENLKVLTVKVNISDGVKDEFCRWCIQNRWRPRSFARPELMKILYNSLNDSFKRLIYPLLCREFRAKLTSDAEKESVMMFGRNLRQLLLTSPVPGRTLMGVDPGYKHGCKLAIISPTSQILHTDVVYLHCGQGFREAEKIKTLLLNFNCSTVVIGNGTACRETEAYFADLIMKNYFAPLDVVYCIVSEAGASIYSVSPEANKEMPGLDPNLRSAVSIARRVQDPLAELVKIEPKHIGVGMYQHDVSQTLLKATLDSVVEECVSFVGVDINICSEVLLRHIAGLNANRAKNIIEWREKNGPFINREQLKKVKGLGPKSFQQCAGFIRINQDYIRTFCSQQTETSGQIQGVAVTSSADVEVTNEKQGKKKSKTAVNVLLKPNPLDQTCIHPESYDIAMRFLSSIGGTLYEVGKPEMQQKINSFLEKEGMEKIAERLQTTVHTLQVIIDGLSQPESFDFRTDFDKPDFKRSIVCLEDLQIGTVLTGKVENATLFGIFVDIGVGKSGLIPIRNVTEAKLSKTKKRRSLGLGPGERVEVQVLNIDIPRSRITLDLIRVLEGHHHHHH | soluble |
| MSLAKPKVIVPMVTPLRGGSVDKNAASWLASRLSESGVDGVFVPGTTGEWYLLDPHERAEAFFAVASSAIAGLRLVAGVSGYRPEESYRLAEEAAGHGAHAVMAVPPIYFRPSTDFLREFYGEIKRRAGGLPTYIYIFPERMGYTLAVEQVESLVEAGVVDGIKATVTDAAYIAGLAAVKERNPEFEVLAGGLEMLVHTSLSGGDGVVDAYSNVAPKLAVELAESLEKGSVERVAGLQGRVLKLSRILGKRSLPAVLKAVLHVLGAPITGEVRKPLKPLTQPEANATANALCTSYRDYLLPGEGHHHHHH | soluble |
| MSLAMNNILGLFAHSPLKPLQKHSEKVTECSDLLIPFFQTTFSKNWEQAEEKRLEISQCEREADSLKREIRLKLPRGLFLPIDRTDLLELVTQQDKLANYAKDIAGRMIGRQFGIPEEMQEEFLHYVKRSLDAIHQAHRVIEEMDKLLETGFKGRELKLVNDMIQELDSIEDDTDQMQIKLRKMLYTIESRYNPIDVMFLYKIIEWVGVLADQAQRVGSRIELMLARSEGHHHHHH | soluble |
| MSLANAFGKEKNIKEFYALKGVSFEISKGECVGIIGHNGAGKSTLLKLLTGVAFPTSGEIEINGRLASMLELGSGFNPELTGMENIYFNGSLNGLTKEEIDGKLKDILEFADIGNFIEQPVKNYSSGMFARLAFAVAINVDPDILIVDEILSVGDVGFQVKCMEKFNEFKKKGKTILYVSHGLGTVKKFCDRAIWLQKGEVVDDGNSVIVVERYYNLNFNPANIEQLKDHKSDIINSIAVKSNTKNVEYLEKLDLEVEYDLISNDLKDPNIVLEFRKTDYEPGTTRGNDQFVCGINSKDNIKNIPFNLGVNKLKVSLNKVNLVAGVYYIDFVLRDGEEEVYRKINGYSFTLNDKYRGEGFLILGHSWGNEGHHHHHH | not soluble |
| MSLANILAIDDSGLMQAFWVRILSRSQHNVITVSSGDEMRGVLATMNPQLIFLDLSFPGENGFELLQHIRSYQHCLEIPVIAVSGYAGEDTRQACREAGFTDFLAKPFSLAELRGMLARYLDHATEGHHHHHH | not soluble |
| MSLANRKYFGTDGVRGKVGAYPITPDFALKLGWAAGKVLASQGSKMVLIGKDTRISGYMLESALEAGLAAAGLSAAFTGPMPTPAIAYLTRTFRAEAGIVISASHNPYYDNGIKFFSAKGTKLPDEIEEAIEAMLEQPMDCVESAELGKASRINDAAGRYIEFCKGTFPAHLGLEGYKIVVDCANGATYHIAPNVLRELGAEVIEIGTDPNGLNINEKCGATDVTALQAKVVETKADVGLAYDGDGDRIMMVDHLGNKVDGDQILFIIAREALRSGQLKGGVVGTLMSNMSLEIALKMLGVPFLRANVGDRYVLEKMVENDWTLGGENSGHIIIADKNTTGDGIVASLAVLAAMAQHKLSLNELASAVKLFPQVLINVRFAGGENPLESDAVKSVAAEVEKRLEGKGRILLRKSGTEPLIRVMVECQDAELAQQCAEEIAEAVKKEGHHHHHH | soluble |
| MSLAPNPYLTGRTLNIAHQGGEALWPSNTLTAYRGAVALGVDLLEMDLHATRDGALVLSHDATLDRLTDTQGRIADLTLEQVLRADAGYTLTPAGGSGFPFRGQGVQVAQLKDVLREFPNTPLIIELKQASPSIAAPFCAELRRAGATGRVIAASFSDAALNEFRRLCPEVMTSMTERELRPLVLLSKVGLSALAPTPGQVAQVPVRSGGIEIVTPAFVRALHARGVAVQVWTIDDEAEMRRLVQMGVDGVITNRPDLLKKVLAEREGHHHHHH | not soluble |
| MSLAQEIALTPQPAHLTVKDGRFEFGNQLKAKVTPYQGDSIRMVFESFKKELQEATGIKVSSTQKEAKARIILDLNPQLPAEAYKLNVSKKQVRIEASRPAGFYYALQTLKQLMPRNVMAGVATSDHSQWSLPSVEIEDAPRFEWRGFMLDEGRHFFGKDEIKRVIDMMAIYKMNRFHWHLTEDQGWRIEIKKYPKLTETGAWRNSKVLAYGDVKPDGERYGGFYTQKDIKEIVAYAKKKFIEIIPEIDIPGHSQAAVAAYPEFLACDPRDKHEVWLQQGISTDVINVANPKAMQFAKEVIDELTELFPFNYIHLGGDECPTRKWQKNDECKKLLSEIGSSNFRDLQIYFYKQLKDYIATKPADQQRQLIFWNEVLHGNTSILGNDITIMAWIGANAAAKQAAKQGMNTILSPQIPYYINRKQSKLPTEPMSQGHGTETVEAVYNYQPLKDVDAALQPYYKGVQANFWTEWVTEPSVLEYLMLPRLAAVAEAGWTPQEKRNYEDFKERIRKDAELYDLKGWNYGKHIMKEGHHHHHH | soluble |
| MSLAQGANAPLNIPANPQMFGTNDPNVRRATAIVNGEIITGTDVEQRLALIVSANGGKIDGEEKERLRMQVLRNLIDETLQIQEAKAADVPADDGQVDASYERVATQNFGQSADALEKYLARIGSSAASLKRQIRGEIAWQNLLRRNVQPFVNVSEGEVQEAMQRLQASKGTEEYRIGEIFLAATEENKPQVFANAEKIVEQLKQGGSFVAYARQYSEASTAAVGGDLGWIRLAQLPTELATTAASMGPGQLAGPVEIRGGFSILYLIDKREGHHHHHH | soluble |
